Measurements as given in patent US20160264664A1 (Ablynx, published 2016).
Where two headings read alike, the source gives them in different places.

T1: mouse P2X7 (mouse, UniProt Q9Z1M0 1-595)
T1 sequence: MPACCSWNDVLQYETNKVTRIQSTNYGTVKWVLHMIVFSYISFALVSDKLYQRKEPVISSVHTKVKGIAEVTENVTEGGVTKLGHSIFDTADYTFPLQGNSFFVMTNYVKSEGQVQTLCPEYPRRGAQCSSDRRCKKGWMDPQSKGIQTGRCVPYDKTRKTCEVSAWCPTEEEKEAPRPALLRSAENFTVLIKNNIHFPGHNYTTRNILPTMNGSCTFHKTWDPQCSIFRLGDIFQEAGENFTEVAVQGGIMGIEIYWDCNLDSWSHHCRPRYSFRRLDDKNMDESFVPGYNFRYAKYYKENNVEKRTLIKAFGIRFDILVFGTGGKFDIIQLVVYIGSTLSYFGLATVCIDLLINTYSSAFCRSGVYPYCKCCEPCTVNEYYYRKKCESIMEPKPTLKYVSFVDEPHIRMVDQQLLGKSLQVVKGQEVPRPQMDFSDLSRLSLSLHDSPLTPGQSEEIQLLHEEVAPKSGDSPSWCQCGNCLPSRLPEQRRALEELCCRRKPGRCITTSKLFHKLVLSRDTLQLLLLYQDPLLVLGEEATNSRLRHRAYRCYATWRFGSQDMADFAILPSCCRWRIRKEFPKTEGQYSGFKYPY

T2: human P2X7 (human, UniProt Q99572 1-595)
T2 construct: on transfected Hek293 cells; also called hP2X7
T2 sequence: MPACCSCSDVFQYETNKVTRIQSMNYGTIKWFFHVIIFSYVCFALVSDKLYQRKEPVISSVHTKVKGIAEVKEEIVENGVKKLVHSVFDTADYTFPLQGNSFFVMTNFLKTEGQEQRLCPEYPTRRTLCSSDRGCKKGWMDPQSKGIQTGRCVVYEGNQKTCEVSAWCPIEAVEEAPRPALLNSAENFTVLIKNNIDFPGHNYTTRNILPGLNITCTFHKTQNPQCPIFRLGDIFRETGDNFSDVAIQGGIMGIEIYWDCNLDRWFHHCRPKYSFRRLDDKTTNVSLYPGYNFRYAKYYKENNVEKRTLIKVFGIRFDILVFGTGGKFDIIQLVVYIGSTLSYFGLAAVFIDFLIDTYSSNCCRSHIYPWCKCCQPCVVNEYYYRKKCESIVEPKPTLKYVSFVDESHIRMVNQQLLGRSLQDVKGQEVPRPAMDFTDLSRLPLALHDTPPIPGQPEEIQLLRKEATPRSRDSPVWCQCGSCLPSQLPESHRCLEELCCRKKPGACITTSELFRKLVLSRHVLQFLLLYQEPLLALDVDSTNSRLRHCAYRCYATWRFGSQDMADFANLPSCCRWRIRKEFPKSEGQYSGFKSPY

T3: human P2X4 (human, UniProt Q99571 1-388)
T3 construct: whole, on cells; also called hP2X4
T3 sequence (looked up): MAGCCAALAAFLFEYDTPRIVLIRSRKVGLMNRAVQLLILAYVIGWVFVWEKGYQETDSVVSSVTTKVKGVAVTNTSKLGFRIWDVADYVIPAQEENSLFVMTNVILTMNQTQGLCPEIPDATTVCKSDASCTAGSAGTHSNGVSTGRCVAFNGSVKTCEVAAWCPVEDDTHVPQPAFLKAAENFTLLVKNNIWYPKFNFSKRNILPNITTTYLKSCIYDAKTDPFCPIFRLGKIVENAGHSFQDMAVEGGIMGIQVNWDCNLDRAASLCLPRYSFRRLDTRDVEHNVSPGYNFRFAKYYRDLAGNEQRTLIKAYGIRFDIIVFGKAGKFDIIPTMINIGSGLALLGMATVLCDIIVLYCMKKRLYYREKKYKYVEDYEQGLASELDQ

T4: mouse P2X7 mutant R151A (mouse, UniProt Q9Z1M0 1-595)
T4 construct: transiently transfected Hek293 cells
T4 sequence: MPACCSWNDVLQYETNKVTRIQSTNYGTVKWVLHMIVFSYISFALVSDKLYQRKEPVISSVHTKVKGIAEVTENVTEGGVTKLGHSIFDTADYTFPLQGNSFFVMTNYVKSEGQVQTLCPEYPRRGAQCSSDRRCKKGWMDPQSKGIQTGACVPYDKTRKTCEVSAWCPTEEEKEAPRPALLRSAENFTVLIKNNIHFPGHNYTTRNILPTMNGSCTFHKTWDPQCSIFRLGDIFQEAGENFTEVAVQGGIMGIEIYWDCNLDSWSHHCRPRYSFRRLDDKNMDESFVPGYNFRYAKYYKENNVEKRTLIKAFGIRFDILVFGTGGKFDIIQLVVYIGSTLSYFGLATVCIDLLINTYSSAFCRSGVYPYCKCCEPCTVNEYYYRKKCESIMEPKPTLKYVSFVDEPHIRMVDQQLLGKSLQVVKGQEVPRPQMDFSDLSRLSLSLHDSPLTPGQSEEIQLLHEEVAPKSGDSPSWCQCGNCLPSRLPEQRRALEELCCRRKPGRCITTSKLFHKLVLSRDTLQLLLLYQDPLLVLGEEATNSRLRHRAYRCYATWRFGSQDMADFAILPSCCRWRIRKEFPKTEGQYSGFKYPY

B1: human chemokine receptor CXCR4 (receptor, UniProt P61073 1-352, looked up)
chain: MEGISIYTSDNYTEEMGSGDYDSMKEPCFREENANFNKIFLPTIYSIIFLTGIVGNGLVILVMGYQKKLRSMTDKYRLHLSVADLLFVITLPFWAVDAVANWYFGNFLCKAVHVIYTVNLYSSVLILAFISLDRYLAIVHATNSQRPRKLLAEKVVYVGVWIPALLLTIPDFIFANVSEADDRYICDRFYPNDLWVVVFQFQHIMVGLILPGIVILSCYCIIISKLSHSKGHQKRKALKTTVILILAFFACWLPYYIGISIDSFILLEIIKQGCEFENTVHKWISITEALAFFHCCLNPILYAFLGAKFKTSAQHALTSVSRGSSLKILSKGKRGGHSSVSTESESSSFHSS
notes: whole, on cells; on transfected HEK293 or camelid (CAKI) cells, or as membrane vesicles / membrane extracts of transfected HEK293 cells; also called hCXCR4
B2: P2X7PMP13A7 (VHH)
VHH: EVQLVESGGGLVQPGESLRLSCTASRFMLDYYDIGWFRQAPGKEREGVSCRFTNDGSTAYADSVKGRFTISRDIVKHTVYLQMNSLQPEDTAVYYCAAGPLTKRRQCVPGDFSMDFWGEGTLVTVSS
notes: family 22; on phage or c-myc/His6-tagged in assays
B3: P2X7PMP7E2 (VHH)
VHH: EVQLVESGGGLVQAGGSLRLSCAAPERTYSMGWFRQAPGKEREFVAGSGWDGIPTRYADSVKGRFTISRDNAKNTVSLQMSGLKPEDTAIYYCATGTSVYHYQYWGQGTQVTVSS
notes: family 3; on phage or c-myc/His6-tagged in assays
B4: P2X7PMP7D5 (VHH)
VHH: EVQLVESGGGLVQAGDSLRLSCAASGRTFSSVAVGWFRQAPGKERDFVAWISWSGDSTYYADSVKGRFTASRDNVNNTVYLQMNSLKPEDTADYYCAAAWKYDRASYDFPEAYDYWGQGTQVTVSS
notes: family 14; on phage or c-myc/His6-tagged in assays
B5: P2X7PMP8G11 (VHH)
VHH: AVQLVESGGGLVQAGGSLRLSCAASGNFFRVNTMAWYRQAPGKQRELVADITRGDRTNYADTVNGRFTISRDNVRNTVYLQMNGLRPEDTAAYYCYAVIELGVLEPRDYWGQGTQVTVSS
notes: family 5, 1; on phage or c-myc/His6-tagged in assays; also called 8011
B6: P2X7PMP14D5 (VHH)
VHH: KVQLVESGGGLVQAGGSLRLSCAASGSPISSYAMGWYRQAPGKPRELVARIYTGGTAWYEDSVKGRFTISRDNAQNTVYLQMNSLKSEDTAVYYCHGRVRYDYWGQGTQVTVSS
notes: family 17; on phage or c-myc/His6-tagged in assays
B7: P2X7PMP20A11 (VHH)
VHH: EVQLVESGGRVMQTGGSLRLSCAASGHTFNDYNMGWFRQAPGKELEFLAGINWSGMSTWYADSVKDRFTISRDNNKNTVFLQMNSLEPGDTAVYYCAARQWISTIILTAPSQYDYWGQGTQVTVSS
notes: family 24; on phage or c-myc/His6-tagged in assays

What was measured:
[1] = biological target: T5, Human CXCL12/SDF-1 alpha (human, UniProt P48061-2 22-89, biotinylated or 125I-labelled); test: flow cytometry (Fluorokine kit) on CXCR4-transfected HEK293 but not parental HEK293 cells
T5 construct: also called CXCL12/SDF-la; SDF-1
T5 sequence (P48061 22-89 limits assumed): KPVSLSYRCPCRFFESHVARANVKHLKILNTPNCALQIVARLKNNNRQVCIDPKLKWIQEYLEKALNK
Source text: To verify the functional expression of human CXCR4, the endotoxin-free pVAX1-CXCR4 plasmid was transiently transfected into HEK293 cells using Eugene (Roche) to monitor in vitro extracellular expression via flow cytometry.

[2] = biological target: T1, mouse P2X7; test: cell-based or functional assay
[3] = biological target: T1, mouse P2X7; test: cell-based or functional assay; remark: listed apart in the source
[4] = biological target: T1, mouse P2X7; test: cell-based or functional assay; remark: listed apart in the source
[5] = biological target: T2, human P2X7; test: flow cytometry, Nanobody pre-incubated with anti-Myc-FITC
[6] = biological target: T3, human P2X4; test: as above
[7] = biological target: T1, mouse P2X7; test: flow cytometry, purified Nanobody titrated on mP2X7-CHO cells
[8] = biological target: T1, mouse P2X7; test: phage ELISA on fixed mP2X7-CHO vs untransfected CHO cells;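 note: phage culture supernatant diluted 10-fold, applied for 1 h to paraformaldehyde-fixed, BSA-blocked cells in 96-well plates, with bound phage read via HRP-linked anti-M13 antibody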
Procedure: (§1) Sub-confluent cells were rinsed with PBS and fixed using 4% paraformaldehyde in PBS for 10 minutes at RT. Fixed cells were washed three times with PBS, and blocked with 2% BSA in PBS for 2 hours. Following blocking, 10-fold diluted culture supernatant containing phage was added and incubated for 1 hour. Cell-bound phage was detected via mouse anti-M13-HRP-conjugate (GE Healthcare, Cat nr. E2886). Rat mAb Hano43 was used as positive control.

[9] = biological target: T4, mouse P2X7 mutant R151A; test: flow cytometry, 1 µM Nanobody on transiently transfected Hek293 cells, normalised to Hano43 staining
Procedure: For flow cytometric assays, detection of Nanobodies was performed via anti-Myc and subsequent goat anti-mouse-PE conjugate, while an estimation of P2X7 expression densities was obtained via staining with rat monoclonal Hano43 followed by secondary anti-rat-PE conjugate.

[10] = biological target: T1, mouse P2X7; test: phage ELISA, mP2X7-CHO vs control CHO cells
Procedure: as §1

[11] = biological target: T1, mouse P2X7; test: flow cytometry, periplasmic extract pre-incubated with anti-myc-FITC, on mP2X7-Hek293 cells;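 note: periplasmic extract diluted 10-fold and premixed 45 min at 4 °C with FITC anti-myc antibody, giving pseudo-bivalent Nanobodies, before binding to the cells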
Procedure: Ten-fold diluted PE were pre-incubation with 0.5 μg anti-myc FITC-conjugated antibodies (AbD Serotec, cat no. MCA2200F) (creating pseudo-bivalent Nanobodies in order to increase binding strength) in 0.1 ml PBS/10% FCS for 45 minutes at 4° C. […] Alternatively, sequential staining of 10-fold diluted PE with anti-myc FITC-conjugated antibodies was done after incubation with the cells.

[12] = biological target: T1, mouse P2X7; test: cell-based or functional assay; remark: listed apart in the source
[13] = biological target: T1, mouse P2X7; test: phage ELISA on fixed mP2X7-CHO vs untransfected CHO cells; phage ELISA, phage-displayed Nanobody, Cho P2X7 vs wt signal ratio
Procedure: as §1

Binder	ATP IC50 by 2 uM NB (head prints 'mM'; ligand titration at fixed Nanobody, CD62L shedding, Yac-1 cells) [2]	binding result [5]	binding result [6]	EC50 [7]	Fold Cho P2X7/wt (phage ELISA) [8]	reduction of binding against WT mP2X7 [9]	further results
B1							binding result [1]: binds
B2	0.565 mM	no binding (tested: 147 nM)	no binding (tested: 147 nM)	0.0034 µM	25 fold		IC50 (nM) against 20 uM NAD (CD62L shedding, Yac-1 cells) [2]: 11 nM; IC50 (nM) against 100 uM ATP (CD62L shedding, Yac-1 cells) [2]: 6 nM; IC50 (read off the curve) [3]: ~0.004 µM; IC50 (read off the curve) [4]: ~0.001 µM
B3		no binding (tested: 147 nM)	no binding (tested: 147 nM)	0.0043 µM	25 fold	> 90%	
B4		no binding (tested: 147 nM)	no binding (tested: 147 nM)	0.003 µM	14 fold	> 90%	
B5	0.389 mM		no binding (tested: 147 nM)		26 fold	> 90%	IC50 (nM) against 20 uM NAD (CD62L shedding, Yac-1 cells) [2]: 68 nM; IC50 (nM) against 100 uM ATP (CD62L shedding, Yac-1 cells) [2]: 37 nM; IC50 (read off the curve) [3]: ~0.06 µM; IC50 (read off the curve) [4]: ~0.02 µM; absorption ratio (ELISA) [10]: 26 ratio; MFI FACS (pre-Myc incubation) [11]: 166 MFI
B6	0.016 mM		no binding (tested: 147 nM)		8 fold		EC50, enhancement of CD62L-ectodomain shedding at 1.5 µM NAD [12]: 0.0041 µM; EC50, enhancement of CD62L-ectodomain shedding at 33 µM ATP [12]: 0.0226 µM
B7		no binding (tested: 147 nM)	no binding (tested: 147 nM)				Fold Cho P2X7/wt (phage ELISA) [13]: 11 fold
